{"source": "patent US20130210034A1", "about": "“COMPLEX PHOSPHOPROTEIN ACTIVATION PROFILES” (BECKMAN COULTER, INC., priority 2005, published 2013)", "molecules": {"B1": {"name": "Granulocyte Colony-Stimulating Factor (protein, UniProt P09919 31-207, looked up)", "Granulocyte …": "TPLGPASSLPQSFLLKCLEQVRKIQGDGAALQEKLVSECATYKLCHPEELVLLGHSLGIPWAPLSSCPSQALQLAGCLSQLHSGLFLYQGLLQALEGISPELGPTLDTLQLDVADFATTIWQQMEELGMAPALQPTQGAMPAFASAFQRRAGGVLVASHLQSFLEVSYRVLRHLAQP", "notes": "colony-stimulating cytokine"}}, "format_in_all_cases": "cell-based, human", "key": {"[1]": {"test_system": "lymphocytes", "assay": "Phosphoprotein modulation in lymphocytes of normal BM (Example 1, internal negative control)", "settings": "lymphocytes of normal BM (Examples 1-2)", "protocol": "To assess the signal transduction response after growth factor simulation, a series comprising two sets of tubes including about 3×10^6 cells/100 μL were incubated at 37° C. for 30 minutes. After this pre-incubation period, tubes with then processes with either a stimulant or inhibitor. […] To examine the effects of protein phosphorylation inhibition, tubes were incubated with an inhibitor cocktail comprising 100 μM/100 μL UO126, 1 μM/100 μL LY294002, and 1 μM/100 μL rapamycin. One unstimulated tube receiving no stimulant or inhibitor was processed to assess basal levels of phospho-protein expression. After stimulation the cells were immediately fixed in 10% formaldehyde solution at 37° C. […] Stained cells were examined using either GALIOS flow cytometer (Beckman Coulter) or CYAN ADP (Beckman Coulter) equipped with 488 nm, 405 nm and 635 nm lasers to detect the degree of fluorescence. Data were analyzed using FCS Express (De Novo Software, CA) analysis software.\nThe tables include the mean and the standard deviation of the percent responding cell population as well as the signal/noise (S/N) ratio for the 5 different phosphoproteins in response to the above-mentioned stimuli in each of these populations. […] Lymphocytes thus served as a de facto internal negative control and their median fluorescence intensity (MFI) was used for normalization of the phosphoprotein measurements."}, "[2]": {"test_system": "pSTAT5", "assay": "Cytokine-stimulated phosphorylation in AML cell populations (BM or PB of AML patients)", "settings": "patient AML3 (Example 3)", "protocol": "(§1) To assess the signal transduction response after growth factor simulation, a series comprising two sets of tubes including about 3×10^6 cells/100 μL were incubated at 37° C. for 30 minutes. After this pre-incubation period, tubes with then processes with either a stimulant or inhibitor. […] To examine the effects of protein phosphorylation inhibition, tubes were incubated with an inhibitor cocktail comprising 100 μM/100 μL UO126, 1 μM/100 μL LY294002, and 1 μM/100 μL rapamycin. One unstimulated tube receiving no stimulant or inhibitor was processed to assess basal levels of phospho-protein expression. After stimulation the cells were immediately fixed in 10% formaldehyde solution at 37° C. Pre-labeling with CD13, CD16 and CD64 antibodies was carried out 20 minutes prior to formaldehyde fixation. After fixation, one set of tubes was permeabilized without methanol for pAKT, pERK and pS6 staining and the other for 80% methanol permeabilized for pSTAT3 and pSTAT5 staining. After permeablization, the cells were washed in PBS with 2% BSA and blocked by re-suspended in 75 μL of PBS comprising 25% heat inactivated normal mouse serum, 25% normal rabbit serum. To stain cells with fluorescent conjugated monoclonal antibodies, samples were incubated on ice for 45 minutes in 100 μL of an antibody staining solution including either: 1) CD15-Pacific Orange, CD34-Phycoerythrin-Texas Red, CD117-Phycoerythrin-Cyanin 5.5, CD45-Allophycocyanin-Alexa Fluor 750 (or CD45-Pacific Orange, in which case CD15-Pacific Orange was omitted), pS6-Pacific Blue, pERK-Alexa Fluor 488 and pAKT-Alexa Fluor 647 or 2) CD15-Pacific Orange, CD34-Phycoerythrin-Texas Red, CD117-Phycoerythrin-Cyanin 5.5, CD45-Allophycocyanin-Alexa Fluor 750 or CD45-Pacific Blue, pSTAT3-Alexa Fluor 488 and pSTAT5-Phycoerythrin. The stained cells were washed twice with ice cold PBS containing 2% BSA and centrifuged at 800 g for 6 minutes at 4° C. The supernatant was discarded and cells re-suspended in 250 μL of chilled wash buffer for data acquisition. Stained cells were examined using either GALIOS flow cytometer (Beckman Coulter) or CYAN ADP (Beckman Coulter) equipped with 488 nm, 405 nm and 635 nm lasers to detect the degree of fluorescence. Data were analyzed using FCS Express (De Novo Software, CA) analysis software.\n(§2) Specific phosphoprotein expression of pERK, pS6, pAKT, pSTAT5, and pSTAT3 was examined in seven discrete phenotypically defined populations based on 7-color immunophenotyping (FIG. 1). The percent of responding (phosphorprotein positive) cells for each of these populations was determined from individual single parameter histograms based on a fixed integration region set on the inhibitor treated control at about 3% positives.\n(§3) Using normal BM signaling profiles of Example 1 as comparison, analysis of 14 AML samples was carried out to identify differences in signaling responses. White blood cells from BM or peripheral blood (PB) samples were obtained from 14 diagnosed AML patients undergoing routine clinical flow cytometry analysis using IRB approved protocols. The AML patients included newly diagnosed AML, AMLs arising in a background of MDS, therapy related AMLs and previously diagnosed AML post therapy. The median age of the patients at diagnosis was 51 years (range: 29-75 years) and represented 5 female and 9 male patients. The median white blood cell was 6.4 million/mL (range: 0.9-106 M/mL) and the BM morphologic blast count was an average of 46% (range: 0%-90%).\n(§4) Experiments performed to assess the signal transduction response after growth factor simulation were performed as described for Example 1."}, "[3]": {"test_system": "pSTAT3", "assay": "Cytokine-stimulated phosphorylation in AML cell populations (BM or PB of AML patients)", "settings": "patient AML3 (Example 3)", "protocol": "as §1, §2, §3, §4"}, "[4]": {"test_system": "pSTAT5", "assay": "Cytokine-stimulated phosphorylation in immunophenotypically defined cell populations from healthy donor BM (flow cytometry)", "settings": "for pSTAT5 Percent (%) Responding Cells, Mean / pSTAT5 S/N ratio: healthy donor BM, mean ± SD", "protocol": "(§5) Bone marrow (BM) samples were collected in 7.5 mL Iscove's modified Dulbecco's medium (IMDM) supplemented with 100U penicillin, 0.01 mg/mL streptomycin, and 70 μg/mL heparin sodium salt from 10 patients undergoing hip replacement surgery, who were otherwise healthy. These patients were from a pool of surgery patients, age 49 to 77, and represented […] patients. […] These BM samples were rinsed twice with IMDM to release cells, filtered using a 100 μm Nylon cell strainer to remove marrow particles, and centrifuged for at RT fro 7 minutes at 200 g. The cell pellet was washed twice with sterile IMDM to remove traces of fat and re-suspended in IMDM to a concentration of 3×10^7 cells/mL.\nas §1, §2"}, "[5]": {"test_system": "pS6", "assay": "Cytokine-stimulated phosphorylation in immunophenotypically defined cell populations from healthy donor BM (flow cytometry)", "settings": "healthy donor BM, mean ± SD", "protocol": "as §5, §1, §2"}, "[6]": {"test_system": "pERK", "assay": "Cytokine-stimulated phosphorylation in immunophenotypically defined cell populations from healthy donor BM (flow cytometry)", "settings": "healthy donor BM, mean ± SD", "protocol": "as §5, §1, §2"}}, "note": "Where “and” joins values, the source holds several entries; their conditions need not be identical. Equal entries are not always repeated.", "data": [{"molecule": "B1", "values": [{"measurement": "Modulation of phosphoprotein epitopes (pERK, pS6, pAKT, pSTAT3 or pSTAT5) in lymphocytes", "setting": "[1]", "value": "no response"}, {"measurement": "pSTAT5, AML Sample", "setting": "[2]", "value": 8.3}, {"measurement": "pSTAT3, AML Sample", "setting": "[3]", "value": 7.0}, {"measurement": "pSTAT5 Percent (%) Responding Cells, Mean", "setting": "[4]; CD34^+ (CD34^+/CD117^+ cells)", "value": "82.6 ± 14.0", "unit": "%"}, {"measurement": "pSTAT5 S/N ratio", "setting": "[4]; CD34^+ (CD34^+/CD117^+ cells)", "value": "25.2 and 25.2 ± 13.3"}, {"measurement": "pSTAT5 Percent (%) Responding Cells, Mean", "setting": "[4]; CD117^+ (CD34^−/CD117^+ cells)", "value": "49.8 ± 25.2", "unit": "%"}, {"measurement": "pSTAT5 S/N ratio", "setting": "[4]; CD117^+ (CD34^−/CD117^+ cells)", "value": "17.0 ± 11.9"}, {"measurement": "pSTAT5 Percent (%) Responding Cells, Mean", "setting": "[4]; G1, immature myeloid cells", "value": "70.9 ± 26.5", "unit": "%"}, {"measurement": "pSTAT5 S/N ratio", "setting": "[4]; G1, immature myeloid cells", "value": "8.7 and 8.7 ± 1.9"}, {"measurement": "pSTAT5 Percent (%) Responding Cells, Mean", "setting": "[4]; G2, intermediate myeloid cells", "value": "71.6 ± 22.0", "unit": "%"}, {"measurement": "pSTAT5 S/N ratio", "setting": "[4]; G2, intermediate myeloid cells", "value": "9.7 ± 2.3"}, {"measurement": "pSTAT5 Percent (%) Responding Cells, Mean", "setting": "[4]; G3, mature myeloid cells", "value": "71.4 ± 17.7", "unit": "%"}, {"measurement": "pSTAT5 S/N ratio", "setting": "[4]; G3, mature myeloid cells", "value": "11.7 and 11.7 ± 3.0"}, {"measurement": "pSTAT5 Percent (%) Responding Cells, Mean", "setting": "[4]; Mono, monocytes", "value": "29.5 ± 19.9", "unit": "%"}, {"measurement": "pSTAT5 S/N ratio", "setting": "[4]; Mono, monocytes", "value": "5.9 ± 2.0"}, {"measurement": "pSTAT5, Normal Sample", "setting": "[4]; Table 7 comparison value, matches percent responding CD34^+ cells of Tables 1-5", "value": 82.6}, {"measurement": "pS6 Percent (%) Responding Cells, Mean", "setting": "[5]; CD34^+ (CD34^+/CD117^+ cells)", "value": "52% and 52.0 ± 34.2%"}, {"measurement": "pS6 S/N ratio", "setting": "[5]; CD34^+ (CD34^+/CD117^+ cells)", "value": "30.7 ± 25.2"}, {"measurement": "pS6 Percent (%) Responding Cells, Mean", "setting": "[5]; CD117^+ (CD34^−/CD117^+ cells)", "value": "41.5 ± 26.5", "unit": "%"}, {"measurement": "pS6 S/N ratio", "setting": "[5]; CD117^+ (CD34^−/CD117^+ cells)", "value": "12.9 ± 10.1"}, {"measurement": "pS6 Percent (%) Responding Cells, Mean", "setting": "[5]; G1, immature myeloid cells", "value": "2.7 ± 1.9", "unit": "%"}, {"measurement": "pS6 S/N ratio", "setting": "[5]; G1, immature myeloid cells", "value": "4.0 ± 2.3"}, {"measurement": "pS6 Percent (%) Responding Cells, Mean", "setting": "[5]; G2, intermediate myeloid cells", "value": "2.9 ± 2.3", "unit": "%"}, {"measurement": "pS6 S/N ratio", "setting": "[5]; G2, intermediate myeloid cells", "value": "3.7 ± 2.1"}, {"measurement": "pS6 Percent (%) Responding Cells, Mean", "setting": "[5]; G3, mature myeloid cells", "value": "4.2 ± 3.0", "unit": "%"}, {"measurement": "pS6 S/N ratio", "setting": "[5]; G3, mature myeloid cells", "value": "4.0 ± 2.4"}, {"measurement": "pS6 Percent (%) Responding Cells, Mean", "setting": "[5]; Mono, monocytes", "value": "42.2% and 42.2 ± 30.2%"}, {"measurement": "pS6 S/N ratio", "setting": "[5]; Mono, monocytes", "value": "17.2 ± 16.8"}, {"measurement": "pERK Percent (%) Responding Cells, Mean", "setting": "[6]; CD34^+ (CD34^+/CD117^+ cells)", "value": "47.1% and 47.1 ± 12.6%"}, {"measurement": "pERK S/N ratio", "setting": "[6]; CD34^+ (CD34^+/CD117^+ cells)", "value": "10.2 and 10.2 ± 2.7"}, {"measurement": "pERK Percent (%) Responding Cells, Mean", "setting": "[6]; CD117^+ (CD34^−/CD117^+ cells)", "value": "39.2 ± 13.9", "unit": "%"}, {"measurement": "pERK S/N ratio", "setting": "[6]; CD117^+ (CD34^−/CD117^+ cells)", "value": "6.8 ± 2.5"}]}]}
